Reference: US20120208291A1
pKd: −log10 of the molar value.

Target: acceptor complex of syntaxin linked to SNAP-25 (UniProt O16000)
Test: KISMI single-molecule imaging

Chain of UniProt O16000 (O16000 1-265, one chain of several): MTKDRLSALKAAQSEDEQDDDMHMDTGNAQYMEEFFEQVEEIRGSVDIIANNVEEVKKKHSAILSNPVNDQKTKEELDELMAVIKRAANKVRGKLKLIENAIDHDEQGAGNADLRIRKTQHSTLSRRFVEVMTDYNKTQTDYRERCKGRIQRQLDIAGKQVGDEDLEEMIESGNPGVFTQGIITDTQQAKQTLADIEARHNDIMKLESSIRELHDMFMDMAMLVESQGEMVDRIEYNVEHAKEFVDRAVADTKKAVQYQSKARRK

- pKd: 5.77
Substance: synaptobrevin (from UniProt O02495 1-86)
